# Data from the supplement of paper PMC10567573.
# B1: DYRK1B (parent)
# chain: KKVLNHGYDDDNHDYIVRSGERWL
# Variants of: B1
# Assay: protein stability index of a GFP-peptide fusion (GPS, HEK-293T) (PSI 1-6); higher = more stable
# Details: c terminus: a fixed tail appended
# 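Also: lentivirally expressed fusions sorted by FACS into six bins by GFP to DsRed ratio, PSI derived from sequencing read proportions per bin multiplied by bin number.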
row,Variant,protein stability index
1,KKVLNHGYDDDNSDYIVRSGERWL [H13S],3.42
2,KKVRNHGYDDDNHDYIVRSGERWL [L4R],3.38
3,KKVDNHGYDDDNHDYIVRSGERWL [L4D],4.28
4,KKVWNHGYDDDNHDYIVRSGERWL [L4W],3.1
5,KKVQNHGYDDDNHDYIVRSGERWL [L4Q],4.12
6,KKVYNHGYDDDNHDYIVRSGERWL [L4Y],2.99
7,KKVSNHGYDDDNHDYIVRSGERWL [L4S],3.27
8,KKVGNHGYDDDNHDYIVRSGERWL [L4G],3.87
9,KKVTNHGYDDDNHDYIVRSGERWL [L4T],3.86
10,KKVMNHGYDDDNHDYIVRSGERWL [L4M],2.88
11,KKVNNHGYDDDNHDYIVRSGERWL [L4N],3.76
12,KKVINHGYDDDNHDYIVRSGERWL [L4I],3.33
13,KKVFNHGYDDDNHDYIVRSGERWL [L4F],2.59
14,KKVPNHGYDDDNHDYIVRSGERWL [L4P],3.36
15,KKVENHGYDDDNHDYIVRSGERWL [L4E],3.56
16,KKVKNHGYDDDNHDYIVRSGERWL [L4K],3.68
17,KKVHNHGYDDDNHDYIVRSGERWL [L4H],3.27
18,KKVVNHGYDDDNHDYIVRSGERWL [L4V],2.58
19,KKVLNHGYDDDTHDYIVRSGERWL [N12T],2.62
20,KKVLNHGYDDDEHDYIVRSGERWL [N12E],3.36
21,KKVLNHGYDDDIHDYIVRSGERWL [N12I],2.47
22,KKVLNHGYDDDQHDYIVRSGERWL [N12Q],3.48
23,KKVLNHGYDDDRHDYIVRSGERWL [N12R],3.27
24,KKVLNHGYDDDFHDYIVRSGERWL [N12F],2.35

row,Variant,protein stability index
1,KKVLNHGYDDDHHDYIVRSGERWL [N12H],2.65
2,KKVLNHGYDDDGHDYIVRSGERWL [N12G],2.81
3,KKVLNHGYDDDPHDYIVRSGERWL [N12P],2.78
4,KKVLNHGYDDDCHDYIVRSGERWL [N12C],2.67
5,KKVLNHGYDDDLHDYIVRSGERWL [N12L],2.3
6,KKVLNHGYDDDAHDYIVRSGERWL [N12A],2.7
7,KKVLNHGYDDDVHDYIVRSGERWL [N12V],2.64
8,KKVLNHGYDDDYHDYIVRSGERWL [N12Y],2.17
9,KKVLNHGYDDDWHDYIVRSGERWL [N12W],2.01
10,KKVLNHGYDDDSHDYIVRSGERWL [N12S],3.01
11,KKVLNHGYDDDKHDYIVRSGERWL [N12K],3.05
12,KKVLNHGYDDDMHDYIVRSGERWL [N12M],2.29
13,KKVLNHGYDDDDHDYIVRSGERWL [N12D],3.4
14,KKVLNHGYDDENHDYIVRSGERWL [D11E],3.18
15,KKVLNHGYDDNNHDYIVRSGERWL [D11N],2.89
16,KKVLNHGYDDMNHDYIVRSGERWL [D11M],2.59
17,KKVLNHGYDDQNHDYIVRSGERWL [D11Q],2.83
18,KKVLNHGYDDPNHDYIVRSGERWL [D11P],2.58
19,KKVLNHGYDDTNHDYIVRSGERWL [D11T],2.75
20,KKVLNHGYDDRNHDYIVRSGERWL [D11R],2.37
21,KKVLNHGYDDSNHDYIVRSGERWL [D11S],3.03
22,KKVLNHGYDDANHDYIVRSGERWL [D11A],3.09
23,KKVLNHGYDDINHDYIVRSGERWL [D11I],2.5
24,KKVLNHGYDDWNHDYIVRSGERWL [D11W],2.02

row,Variant,protein stability index
1,KKVLNHGYDDVNHDYIVRSGERWL [D11V],2.54
2,KKVLNHGYDDCNHDYIVRSGERWL [D11C],2.55
3,KKVLNHGYDDHNHDYIVRSGERWL [D11H],3.08
4,KKVLNHGYDDYNHDYIVRSGERWL [D11Y],2.48
5,KKVLNHGYDDGNHDYIVRSGERWL [D11G],2.85
6,KKVLNHGYDDLNHDYIVRSGERWL [D11L],2.25
7,KKVLNHGYDDFNHDYIVRSGERWL [D11F],2.15
8,KKVLNHGYDDKNHDYIVRSGERWL [D11K],2.92
9,KKVLNHFYDDDNHDYIVRSGERWL [G7F],2.4
10,KKVLNHRYDDDNHDYIVRSGERWL [G7R],3.31
11,KKVLNHMYDDDNHDYIVRSGERWL [G7M],3.07
12,KKVLNHWYDDDNHDYIVRSGERWL [G7W],2.74
13,KKVLNHYYDDDNHDYIVRSGERWL [G7Y],2.93
14,KKVLNHCYDDDNHDYIVRSGERWL [G7C],2.27
15,KKVLNHLYDDDNHDYIVRSGERWL [G7L],2.24
16,KKVLNHDYDDDNHDYIVRSGERWL [G7D],3.4
17,KKVLNHHYDDDNHDYIVRSGERWL [G7H],2.84
18,KKVLNHKYDDDNHDYIVRSGERWL [G7K],3.3
19,KKVLNHNYDDDNHDYIVRSGERWL [G7N],3.23
20,KKVLNHAYDDDNHDYIVRSGERWL [G7A],3.47
21,KKVLNHSYDDDNHDYIVRSGERWL [G7S],3.21
22,KKVLNHEYDDDNHDYIVRSGERWL [G7E],3.64
23,KKVLNHTYDDDNHDYIVRSGERWL [G7T],3.53
24,KKVLNHQYDDDNHDYIVRSGERWL [G7Q],3.12

row,Variant,protein stability index
1,KKVLNHPYDDDNHDYIVRSGERWL [G7P],3.15
2,KKVLNHIYDDDNHDYIVRSGERWL [G7I],2.22
3,KKVLNHVYDDDNHDYIVRSGERWL [G7V],2.77
4,KKVLNHGYDEDNHDYIVRSGERWL [D10E],2.95
5,KKVLNHGYDLDNHDYIVRSGERWL [D10L],2.43
6,KKVLNHGYDPDNHDYIVRSGERWL [D10P],2.81
7,KKVLNHGYDRDNHDYIVRSGERWL [D10R],2.82
8,KKVLNHGYDVDNHDYIVRSGERWL [D10V],2.44
9,KKVLNHGYDIDNHDYIVRSGERWL [D10I],2.3
10,KKVLNHGYDHDNHDYIVRSGERWL [D10H],2.75
11,KKVLNHGYDWDNHDYIVRSGERWL [D10W],2.04
12,KKVLNHGYDQDNHDYIVRSGERWL [D10Q],2.99
13,KKVLNHGYDFDNHDYIVRSGERWL [D10F],1.83
14,KKVLNHGYDCDNHDYIVRSGERWL [D10C],2.52
15,KKVLNHGYDSDNHDYIVRSGERWL [D10S],2.72
16,KKVLNHGYDADNHDYIVRSGERWL [D10A],3.02
17,KKVLNHGYDMDNHDYIVRSGERWL [D10M],2.96
18,KKVLNHGYDGDNHDYIVRSGERWL [D10G],3.46
19,KKVLNHGYDKDNHDYIVRSGERWL [D10K],3.16
20,KKVLNHGYDYDNHDYIVRSGERWL [D10Y],3.06
21,KKVLNHGYDNDNHDYIVRSGERWL [D10N],2.48
22,KKVLNHGYDTDNHDYIVRSGERWL [D10T],3
